Assay results reported in publication doi:10.1101/2023.11.29.569174v1.

B1: NUDT15 (Homo sapiens) (protein)
chain: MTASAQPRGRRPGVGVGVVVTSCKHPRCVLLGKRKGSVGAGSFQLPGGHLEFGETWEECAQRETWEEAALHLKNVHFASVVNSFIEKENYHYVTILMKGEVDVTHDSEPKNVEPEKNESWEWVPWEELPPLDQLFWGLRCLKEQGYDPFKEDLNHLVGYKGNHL
B2: NUDT18 (Homo sapiens) (protein)
chain: MASEGLAGALASVLAGQGSSVHSCDSAPAGEPPAPVRLRKNVCYVVLAVFLSEQDEVLLIQEAKRECRGSWYLPAGRMEPGETIVEALQREVKEEAGLHCEPETLLSVEERGPSWVRFVFLARPTGGILKTSKEADAESLQAAWYPRTSLPTPLRAHDILHLVELAAQYRQQARHPLILPQELPCDLVCQRLVATFTSAQTVWVLVGTVGMPHLPVTACGLDPMEQRGGMKMAVLRLLQECLTLHHLVVEIKGLLGLQHLGRDHSDGICLNVLVTVAFRSPGIQDEPPKVRGENFSWWKVMEEDLQSQLLQRLQGSSVVPVNR

Columns and labels:
Test in all cases: purified protein
purified protein [1] = substrate: CC(C)=CCOP(=O)(O)OP(=O)(O)O; conditions: pH 8.0, 22 °C, 10 mM Mg acetate, 40 mM NaCl, 0.01% Tween 20
purified protein [2] = substrate: C=C(C)CCO[P@@](=O)(O)OP(=O)(O)O; conditions: pH 8.0, 22 °C, 10 mM Mg acetate, 40 mM NaCl, 0.01% Tween 20
purified protein [3] = substrate: Nc1nc2c(ncn2[C@H]2C[C@H](O)[C@@H](COP(=O)(O)OP(=O)(O)OP(=O)(O)O)O2)c(=O)[nH]1; conditions: pH 8.0, 22 °C, 10 mM Mg acetate, 40 mM NaCl
purified protein [4] = substrate: CC(C)=CCC/C(C)=C/COP(=O)(O)OP(=O)(O)O; conditions: pH 8.0, 22 °C, 10 mM Mg acetate, 40 mM NaCl, 0.01% Tween 20
purified protein [5] = substrate: C[C@@](O)(CCOP(=O)(O)OP(=O)(O)O)CC(=O)O; conditions: pH 8.0, 22 °C, 10 mM Mg acetate, 40 mM NaCl, 0.01% Tween 20
purified protein [6] = substrate: CC(C)=CCC/C(C)=C/CC/C(C)=C/CC/C(C)=C/COP(=O)(O)OP(=O)(O)O; conditions: pH 8.0, 22 °C, 10 mM Mg acetate, 40 mM NaCl, 0.01% Tween 20
purified protein [7] = substrate: CC(C)=CCC/C(C)=C/CC/C(C)=C/CO[P@@](=O)(O)OP(=O)(O)O; conditions: pH 8.0, 22 °C, 10 mM Mg acetate, 40 mM NaCl, 0.01% Tween 20

Protein | Km (purified protein [1]) [µM] | kcat (purified protein [1]) [s⁻¹] | Km (purified protein [2]) [µM] | kcat (purified protein [2]) [s⁻¹] | Km (purified protein [3]) [µM] | kcat (purified protein [3]) [min⁻¹] | Km (purified protein [4]) [µM] | kcat (purified protein [4]) [s⁻¹] | Km (purified protein [5]) [µM] | kcat (purified protein [5]) [s⁻¹] | Km (purified protein [6]) [µM] | kcat (purified protein [6]) [s⁻¹] | Km (purified protein [7]) [µM] | kcat (purified protein [7]) [s⁻¹]
B1 | 159.3 ± 40.5 | 0.94 | 63.6 ± 19.4 | 0.49 | 21 | 38.2 | 18.7 ± 0.2 | 0.72 |  |  |  |  |  | 
B2 | 9.8 ± 2.9 | 0.94 | 12.4 ± 2.6 | 0.87 |  |  | 3.7 ± 0.4 | 0.78 | 26.8 ± 2.8 | 0.55 | 17.9 ± 3.4 | 0.15 | 18.8 ± 3.9 | 0.52
